The DeepSol protein solubility set

Assay: soluble on expression in E. coli; label from the status in PepcDB or PDB records

Sequence | soluble on expression in E. coli
GPGSMEVNATLIDCCDPQKPSRVLFHFLILDAPSPSNLPTYIKELQHRGVRHLVRVCGPTYDATLVKSRGIDVHSWPFDDGAPPTRAVLDSWLKLLDTELARQQEDPSVPPPTIGVHCVAGLGRAPILVALALVEYGNVSALDAIALIREKRKGAINQTQMHWITKYKRRHQGAGCVIM | soluble
MGSDKIHHHHHHMTTQSFIATKEHRRFAEFADAVRRQHTIGICYGHAGIGKTLSAKRYANWHKAENLIEQWGPRDDADYQIYAALARARTVFYTPAVLTSPKQIHAELEHISTRVSICVDQHLEKIGKKTGPHTRTGKHVELLIIDESERLNATALELLRDRYDRDNIALILIGMPGIEKWFSRYAQLYSRVGFAHEYRPLAQEELNFVLERRWHKLGQTLDPEDFTDAQAIAAVARITRGNFRLIDRLFTQIERVMKINELSTITDDVIEAARSTLVIGIS | not soluble
SLKYCIHNTRLIIGIADRVIENGSILFDQDKILKVSAHSITDADVFIDGTTFSVLPGLIDVHVHLGMDCSVDPFDTMENTEDAFTSFIAYKQGLQFLRAGITTVRNLGTKNNVDIIYKKAVESGLVIGPRVYAAGQPLIMTGGHGQPMGTEVDGKDEVIKATRQRIKEGADLIKIMATGGVLTKGNHPGAVHFNVDELKCICQEAAKASLTTAAHAIGLNGVKNAIKAGVNTIEHGYYLDKETVDTMRDLGIYLTPTLLAPTLLQKNSEHIPQHMIDKIEEIEKEHRKSFRLALERGVKIIAGTDAGTPFNNPGQLVEELKIMLEEGMTTAQAIESATYLGAKCLKVDSLIGSLEEQKLADLIVVKGNPLEDISNLKNIQHVFKGGVRLYPDQIH | soluble
MSIVLSADHKDALQEFMNISMGRAASKLATLLNLHVTISVPNIRVATEEDMRALQSYAADYYYTRQSFYGGMDGELITLMSRCGCEQVVNDLNHSKGMADGLVSIEESILDISNILSGASLKGLCQQIELKTKIQPPVIFDPTHQPLPILQWRLSLIMEINFLVEKASFSAKTIICFADKELDKVFAHLDELLM | not soluble
MGSSHHHHHHSSGLVPRGSHMIMIHIKAIHDLTVPLETYMPIWPTNPLLEIKPVGTVARDGYKIETISGSTHSGTHIDAPAHMLENGITIDQIDPIRFIGTGYCIKTIPDGNFVRSTHLIEKWKEEYDGSIILIETGWYKKRGFTREFQYEFPGLTEDAAEFLIERNVKLVGIDTLGIEPYQDSDFHVHKKLLSKGIPFIEDLYGLDDLEEGKPYLVVALPLKMKGASGSMARVMALEMD | soluble
MSLEDYCTPGAFELERLFWKGSPQYTHVNEVWPKLYIGDEATALDRYRLQKAGFTHVLNAAHGRWNVDTGPDYYRDMDIQYHGVEADDLPTFDLSVFFYPAAAFIDRALSDDHSRKRDVRVRNLCRKAGPLGLLVAEGKGKILVHCVMGRSRSATLVLAYLMIHKDMTLVDAIQQVAKNRCVLPNRGFLKQLRELDKQLVQQRRRSEGHHHHHH | soluble
MSKLCKEFSLSATVKNISRFVDEEIYYTDTEERFNIPWRMCIAKCDDEFSLGLKCEKNNWDNREWSIETDWTMKLVSHNGKSLMESKKFTFNNSNIFDGGLNTSWDLLESDYVVDDSVVVEAHVKIIKITDLPCDEDEDSKTFLLSSTVRNISSIEEGDDYYTETTIRHNIPWRMQIKRDDGFFGLFLRCEKEDCEDPGKSWSIELDYELRLVSLNGQSLTFSDSDLFIYPSGEGFQKFMRWDDMEEKYMVNGSIIIEARGKITSLEESDDESSSENEEDDSSESHSENDSSSDNLEDEFSECVINVGGQNYTVKKQ | not soluble
MTRPIGIYEKATPKHFNWLERLQFAKELGFDFVELSIDESDERLARLEWSKEERLELVKAIFETGVRVPTITFSGHRRFPMGSNNPEKEARAMDMMKKCIVFAQDIGIRNIQLAGYDVYYEEKSPETRARFIKNLRQACTWAEEAQVILSIEIMDDPFMNSIEKYLAVEKEIDSPYLFVYPDTGNVSAWHNDLWSEFYNGHRSIAALHIKDTYAVTETSKGQFRDVPFGQGCVDWEEMFAVIKKTNYNGPFLIEMWSENCETVEETRAAIKEAQDFLYPLMEKTGVK | not soluble
GHMNMSQSQEIVLQPRSIVVPGELLAEGEFQIPWSPYILKINSKYYSTVVGLFDVKDTQFEVIPLEGSFYYPKINDIVIGLVEDVEIYGWVVDIKAPYKAYLPASNLLGRSINVGEDLRRYLDVGDYVIARIENFDRSIDPVLSVKGKDLGRVSNGIVIDIMPVKVPRVIGKNKSMYETLTSKSGCSIFVANNGRIWATCPSRFSEEILIEAIRKIENESHIKGLTDRIKQFIEEKLGERNASSGETKTNS | soluble
TSNFFCGEPIDYRGITAHRLVGAEPRPPVSGTRYAKVPGVPDEYKTGYRPANLGRSDPDSDKSLMNIAVKNLQVYQQEPKLDKVDEFIERAAADVLGYLRFLTKGERQANLNFKAAFNTLDLSTSCGPFVPGKKIDHVKDGVMDQVLAKHLYKCWSVANSGKALHHIYACGLKDELRPLDKVKEGKKRLLWGCDVGVAVCAAAVFHNICYKLKMVARFGPIAVGVDMTSRDVDVIINNLTSKASDFLCLDYSKWDSTMSPCVVRLAIDILADCCEQTELTKSVVLTLKSHPMTILDAMIVQTKRGLPSGMPFTSVINSICHWLLWSAAVYKSCAEIGLHCSNLYEDAPFYTYGDDGVYAMTPMMVSLLPAIIENLRDYGLSPTAADKTEFIDVCPLNKISFLKRTFELTDIGWVSKLDKSSILRQLEWSKTTSRHMVIEETYDLAKEERGVQLEELQVAAAAHGQEFFNFVCRELERQQAYTQFSVYSYDAARKILADRKRVVSVVPDDEFVNVME | soluble
MNNTVIACVDGSPSTRPVCEYAAWAAGKLGAPLALLHVLEKSETPAVSDLTGSIGIDSREQLTEALVRVEGERSRLLMAQGKAVLAGCAELLKQTGQPDAQLLQKHGALDEILAELGEVRLMVLGRRGTQNQVGSHLESVIRLQKNPVLIVPETFTPPARVMFAYDGSSESRKNLTRLTVSPLLHGLSCHIVMVNGDMSALQDAQAVLQEAGITTETRLLEDESVTGALCRYADAHDIDLTVMGACGHSRLRRFFIGSHTTEMLSESRQPLLMLR | not soluble
MGSDKIHHHHHHMGHYEHKTKEELLEIVCKLEKKVEGLSSELDSLKKGRFRERYSTRILDALPDMLTVFDHNANIVELASSPTTNHVEGTTSDSIINSNVKDIVPEEAYESVRHNMDKVIHTGKSSTAEHSLMLDGVLHHYENRIFPLDDQYLLCMCRDVSQETEMAKINETQRSEIVRLNSLMNDILNNIPVYLFVKDTGNDFRYLYWNKAFAEHSGISVQRAVGSTDADIFPDKKDAEHFREDDLKVMKLGRIEYLENYTTMSGEVRTVTTMKTVVPSGGQHPYIIGVSWDVTEIKKTEKELIAARIKAEEADRMKSSFLANMSHEIRTPLNAIVGFSKLIIEADNECEKRQYADIVEHNSTVLLNLFNDILDLSALEAGSLELSYHPVRLKDICLQLYELHVKSVKPEVRLVLDEVDSQLCIQGDWERISQVLVNLITNAIKFTSVGEIHFGFQKKADMVQFYMSDTGKGIPAERVATIFQRFGKIDDFVQGTGLGLTICRMLVEKMGGRIWVRSKQGEGTVFYFTLPMAK | not soluble
MFDPKMLSVEFRNGITDEKPIEGRKYTLTHNDDTGELFLTVALAYAYDKINSSARDEVFGVWKRGNNRFILKIYLYVDGNQGREEAIKRDRIFRKELPLALAAIAYGDRKFLDDNDDLLNSNIIVRFISAYEELNKIENYGTLKDYLEHHHHHH | soluble
MATPDTSAAKMAGQDRQKLKVVAWLQNLVERLKGWTPGHCQKLFDEKELIQLCYRAREVFWKNNVKLELKAPVKICGDLHGQYEDLLALLELNGWPPETKYLFLGDYVDRGPFSIEVISLLFAYQVLHPDKVFLLRGNHESRPVNMQYGFFMECRKRFSNALYDAFQLAFYCMPLCAVVSDKIICMHGGISEDLVDLRQLDKVERPCDVPDIGVIADLTWADPDATIQMYAESQRGAGRVFGAEAVKKFLNTHHLELVVRAHQVVMDGYEFFADRQLVTIFSAPSYCGQMDNAAAVMTVDEELVCSFTVMRPDLKKDKEKKAAVGIVPN | not soluble
LEGENSKQKVQMSIHQFTNICFKKCVESVNDSNLSSQEEQCLSNCVNRFLDTNIRIVNGLQNTR | soluble
MSLDFSHEFFGSLDPQALAHPDSIKWQHYGEGVIPMWIADMDFPVAPPILRALEDRLTRGLGYPLGRDDRLIADLQTKWASQGLTDVPADGIHFTPSVVPGLYAGVHGLTEPGDRVVTMTPIYHPFHLAINDLGREVAAAPLREGDTRWEIDWDALERAAEGARLLMLCHPHNPCGRVWDADELARLRELVLAHDLYVISDELHADLRFTDAPFEAFAADPRVRDRTLTVTGPCKAFNTAGLGIGVMVTHDPELLARVQRRVAGLGGHPSALSFTMWRVALEDGGPWLARTVEYLRGNRDFMTAFLRERLPWVRFTVPEATYLAWLDLREHPEAGRIQEFLLEEAKVAVHNGPTFAPGEQGAAYQGFIRVNFATSRAILTEALERMARALDTRQEGHHHHHH | not soluble
MGGSHHHHHHGMASALRTDKKSEFLKALKRDRVEEEHEDESRAGSEKDDDSFNLHNSNSTHQERDINRNFDENEIPQENGNASVISQQIIRSSTFPQTDVLSSSLEAEHRLLKEMGWQEDSENDETCAPLTEDEMREFQVISEQLQKNGLRKNGILKNGLICDFKFGPWKNSTFKPTTENDDTETSSSDTSDDDDV | not soluble
MENGEVLISGYRIPYSYAAMPGVKKNLVIIDIKGDEIWQKLRAADRINEWKINVYIPHFIAGSKEVVDSEPSSNLDSAGEFYYNFVQAMRLKNVMLMGEGINADVALKCSMIHPERFSNVIAIDGTGYDGYAEELYRVQKPVLLVWGGARGYRETMIGQSYHDLIAGSVFKVFDNSKRPLEDSTDRFFSMLKNYIAVD | not soluble
MSLDNTEQEKFETYDLDVETVYCRPIIKFPLLLIHAYRVYLALNDHNDIEPRLHSDRLLEIFDPLINGDEQSVKLFIETLWQVRYQFDRWVVKWVERDDATDAQLGLTYQSRSKSNDTYYINRTQKELTDIVLLQSVRNFTGERSAQYWLTPFLSGLIRSSIKQDSVALELLENIDNKMSLSVDTQKEASFALAEGIEPNCQSWQSQSTYFAKSLGTSFEHYWFQKLEYLIWKKMKASESSLPSEELNKFKKYRITSKNSVEHVHPQNDEYNSRLDCETLNSFGNLVLLSPGENSSYSNQDVDKKRIDFERKSHFDALKLREIFGVKGQGLWGKQQIDNHLEDMMAVFAQHYKEGHHHHHH | not soluble
LNLSEKQVVKIGILQYVTHDALDAIEKGVEDGLAQEGYKGKKVKLTVLNAEADQSKIQAMSKQLVNHHNDILIGIATPSAQGLAASTKDTPIIMGAVSDPLGAKLVTNMKKPTTNVTGLSNVVPTKQTVQLIKDITPNIKRIGILYASSEDNSVSQVTEFTKYAQKAGLEVLKYSVPSTNEIKTSMSVMTKKVDAVFVPQDNTIASAFRTVIVAANQANIPVYSSVDTMVEQGSIASVAQSQYGLGLETAKQAIKVLRGKPVKDVPVKVIDTGKPSLNLKAAKHLGIKIPKKIMKQAEITVKVD | not soluble
